Measurements reported in patent US20220062371.

Legend:
[1] = tested on: Compound 1, AF-Arg-Lys(PEG4-Mal-Cys-Ac)-Phe-OH
[2] = tested on: Compound 10, Arg-PEG4-Phe-Arg-Dab(CO-CPT)-Phe-OH
[3] = tested on: Compound 11, Arg-PEG4-Phe-Arg-Ser(CO-CPT)-Phe-OH
[4] = tested on: Compound 12, Ac-Cys-Mal-PEG4-Phe-Lys-Lys(Mal-DM1)-Phe-OH
[5] = tested on: Compound 13, Ac-Cys-Mal-PEG4-Phe-Lys-Lys(AF)-Phe-OH
[6] = tested on: Compound 15, Arg-PEG4-Phe-Arg-Glu(Sar-OCPT)-Arg-OH
[7] = tested on: Compound 16, Arg-PEG4-Phe-Arg-Glu(Sar-OCPT)-Arg-Phe-Arg-OH
[8] = tested on: Compound 17, Arg-PEG4-Phe-Arg-[Glu(Sar-OCPT)-Phe]2-OH
[9] = tested on: Compound 18, Arg-PEG4-[Phe-Arg-Glu(Sar-OCPT)-Arg]2-OH
[10] = tested on: Compound 19, AF-Cit-Lys(PEG4-Mal-Cys-Ac)-Phe-OH
[11] = tested on: Compound 22, DM1-Mcc-Phe-Cit-Lys(PEG5-Ma-Cys-Ac)-Tyr-OH
[12] = tested on: Compound 23, DM1-Mcc-Cit-Lys(PEG5-Ma-Cys-Ac)-Tyr-OH
[13] = tested on: Compound 27, Ac-Cys-Ma-PEG5-Phe-Cit-Lys(Mcc-DM1)-Tyr-OH
[14] = tested on: Compound 28, Ac-Cys-Mal-PEG4-Phe-Lys-Lys(Mal-DM1)-Phe-Phe-Lys-OH
[15] = tested on: Compound 29, Ac-Cys-Mal-PEG4-[Phe-Lys-Lys(Mal-DM1)-Phe]2-OH
[16] = tested on: Compound 3, AF-Arg-Phe-Lys(PEG4-Mal-Cys-Ac)-OH
[17] = tested on: Compound 30, Ac-Cys-Mal-PEG4-Phe-Arg-Lys(Mal-DM1)-Arg-Lys(AF)-Phe-OH
[18] = tested on: Compound 31, AF-Cit-Lys(Mal-DM1)-Phe-Lys(PEG4-Mal-Cys-Ac)-Phe-OH
[19] = tested on: Compound 32, Ac-Cys-Mal-[PEG5-Lys(AF-Cit-Lys(Y)-Phe-OH)]2-Gly-NH2
[20] = tested on: Compound 5, DM1-Mal-Phe-Lys-Lys(PEG4-Mal-Cys-Ac)-Phe-OH
[21] = tested on: Compound 6, DM1-Mal-Phe-Cit-Lys(PEG4-Mal-Cys-Ac)-Phe-OH
[22] = tested on: Compound 7, DM1-Mal-Phe-Cit-Phe-Lys(PEG4-Mal-Cys-Ac)-OH
[23] = tested on: Compound 8, Arg-PEG4-Phe-Arg-Glu(Sar-OCPT)-Phe-OH
[24] = tested on: Compound 9, Arg-PEG4-Phe-Arg-Dap(CO-CPT)-Phe-OH

## Recombinant human Cathepsin B
[1]
  T1/2 Compound (min), Cat B-induced cleavage: 1.5 min
[2]
  T1/2 Compound (min), Cat B-induced cleavage: 0.9 min
[3]
  T1/2 Compound (min), Cat B-induced cleavage: 2.2 min
[4]
  T1/2 Compound (min), Cat B-induced cleavage: 1.5 min
[5]
  T1/2 Compound (min), Cat B-induced cleavage: 1.6 min
[6]
  Cat B-induced cleavage (in vitro enzymatic cleavage assay): Cat B-induced cleavage of compound 15 releases a second C-terminal dipeptide-drug unit H-Glu(Sar-OCPT)-Arg-OH
[7]
  Cat B-induced cleavage (in vitro enzymatic cleavage assay): compound 16 as a first intermediate, which is in turn rapidly cleaved via exo-Cat B mechanism to release compound 15 as a second intermediate
[8]
  Cat B-induced cleavage (in vitro enzymatic cleavage assay): Cat B-induced cleavage of compound 17 rapidly released C-terminal dipeptide-drug unit Glu(Sar-OCPT)-Phe-OH and compound 8 as an intermediate
[9]
  Cat B-induced cleavage (in vitro enzymatic cleavage assay): Cat B-induced cleavage of compound 18 rapidly released the C-terminal dipeptide-drug unit H-Glu(Sar-OCPT)-Arg-OH and compound 16 as a first intermediate
[10]
  T1/2 Compound (min), Cat B-induced cleavage: 1.1 min
[11]
  T1/2 Compound (min), Cat B-induced cleavage: 0.06 min
[12]
  T1/2 Compound (min), Cat B-induced cleavage: 0.0004 min
[13]
  T1/2 Compound (min), Cat B-induced cleavage: 0.06 min
[14]
  T1/2 Compound (min), Cat B-induced cleavage: 0.3 min
[15]
  T1/2 Compound (min), Cat B-induced cleavage: 2.4 min
[16]
  T1/2 Compound (min), Cat B-induced cleavage: 1.4 min
[17]
  T1/2 Compound (min), Cat B-induced cleavage: 1.1 min
[18]
  T1/2 Compound (min), Cat B-induced cleavage: 1.08 min
[19]
  T1/2 Compound (min), Cat B-induced cleavage: 0.98 min
[20]
  T1/2 Compound (min), Cat B-induced cleavage: 0.6 min
[21]
  T1/2 Compound (min), Cat B-induced cleavage: 0.3 min
[22]
  T1/2 Compound (min), Cat B-induced cleavage: 1.2 min
[23]
  Cat B-induced cleavage (in vitro enzymatic cleavage assay): compound 8 was rapidly cleaved to release the C-terminal dipeptide-drug unit H-Glu(Sar-OCPT)-Phe-OH
  T1/2 Compound (min), Cat B-induced cleavage: 2.2 min
[24]
  T1/2 Compound (min), Cat B-induced cleavage: 4.5 min
